# Measured values as given in the DeepSol protein solubility set.
# Test: soluble on expression in E. coli; label from the status in PepcDB or PDB records
row,Sequence,soluble on expression in E. coli
1,MRIAILGGGVAGSTLAYLLSRINYEVTIFDINQHYVKPCGDIVPNIYTPPFNWKETFGIRRFSFYIDGEKIYDVEYRHTKWLVIDKWKWINDMRKSSKVIVTHDNNAKEFDYVIDSRGPYPMDREVVYTTRAIIETEEFDDEAILEFNTRYTGFYWIFPSKENEYNIGAGFLEYKNSKELLNYYLRKRFKNFEVKDIRGAPISIGSVKNKKLRIGEARGLVFPLSGEGIRPSAISAEYAFEAIHKEKDLDGFLNEKLSIIEKRIKIQKMLLDLYRYSSLNLRKTFMRIFFKNEVLIDTYLEDKMDLNGIIESLKSVRANGGIIRKFEEQERLEHHHHHH,not soluble
2,MGSDKIHHHHHHMIQSYPVERSRTIQTRLVLPPDTNHLGTIFGGKVLAYIDEIAALTAMKHANSAVVTASIDSVDFKSSATVGDALELEGFVTHTGRTSMEVYVRVHSNNLLTGERTLTTESFLTMVAVDESGKPKPVPQVEPQTEEEKRLYETAPARKENRKKRAALR,soluble
3,MMSTPALRPYLPEDAAVTAAIFVASIEQLTADDYSEEQQEAWASAADDEAKFAARLSGQLTLIATLQGVPVGFASLKGPDHIDMLYVHPDYVGRDVGTTLIDALEKLAGARGALILTVDASDNAAEFFAKRGYVAKQRNTVSINGEWLANTTMTKSLADSAAPGASS,soluble
4,MLYASLCRTPVFGILAQILCDIYSSIGCALSSFRSPLGPPFDFLFDTCSCQTARCFNKSKGVLITGSKLKAFRNPQPSWGFSVHKQVAALWQQLLSTGNVTRETDFFQQGGDSLLATRLTGQLHQAGYEAQLSDLFNHPRLADFAATLRKTDVPVEQPFVHSPEDRYQPFALTDVQQAYLVGRQPGFALGGVGSHFFVEFEIADLDLTRLETVWNRLIARHDMLRAVVRDGQQQVLEQTPRWVIPAHILHTPEEALQVREKLAHQVLNPEVWPVFDLQVGYVDGMPARLWLCLDNLLLDGLSMQILLAELEHGYQYPQQLPPPLPVTYRDYLQQPAIQSLNADSLAWWQAQLDDIPPAPALPLRCMPQDVETPRFARLNGALDSTRWHRLKKRAADAHLTPSAVLLSVWSTVLSAWSAQPEFTLNLTLFDRRPLHPQINQILGDFTSLMLLSWHPGESWLHSAQSLQQRLSQNLNHRDVSAIRVMRQLAQRQNVPAVPMPVVFTSALGFEQDNFLARRNLLKPVWGISQTPQVWLDHQVYESEGELRFNWDFVAALFPAGQVERQFEQYCTLLNRMTEDENSWHLPLAALVPPVKQAEQGTERTSRVCPEHSQSHIAADESTVSLICDAFREVVGESVTPAQNFFEAGATSLNLVQLHVLLQRHEFSTLTLLDLFTHPSPAALAAYLTSVATVEKTKRSRPVRRRQRRI,not soluble
5,GSHMSKKILIVESDTALSATLRSALEGRGFTVDETTDGKGSVEQIRRDRPDLVVLAVDLSAGQNGYLICGKLKKDDDLKNVPIVIIGNPDGFAQHRKLKAHADEAVAKPVDADQLVERAGALIGFPE,soluble
6,MSYYHHHHHHDYDIPTTENLYFQGAMDPEFRVINLAYDDNGTGDPVVFIAGRGGAGRTWHPHQVPAFLAAGYRCITFDNRGIGATENAEGFTTQTMVADTAALIETLDIAPARVVGVSMGAFIAQELMVVAPELVSSAVLMATRGRLDRARQFFNKAEAELYDSGVQLPPTYDARARLLENFSRKTLNDDVAVGDWIAMFSMWPIKSTPGLRCQLDCAPQTNRLPAYRNIAAPVLVIGFADDVVTPPYLGREVADALPNGRYLQIPDAGHLGFFERPEAVNTAMLKFFASVKA,soluble
7,MKKPVYLTPEGYRRLQEELNHLKTVKRQEISADFEQALEEGDLRENAGYDEARRAMWQNEARIAQLEDLLSRAVIVENGSFDQVALGCQVELETETGERLSLAIVGSHEADIFSGKISDESPLGQALLGKKVGDVVEIRGKKGAQVYTILEIKPL,soluble
8,MIEYSSFVLDNGLKVFVHEDRTTSMAALNILYDVGSKDEVVTKTGFAHLFEHLMFGGSKHIPSYDEALQKAGGENNAFTSPDITNYYITIPANNIETAFWLESDRMMALSFDPKVLEVQRSVVIEEFKQRYLNQPYGDVWLKLRPLAYKEHSYKWATIGKEISHIEEATMDDVRDFFYSYYLPNNAYMVVAGNVTLEQVKKLSEKWFAPIPSGTRRKRNIP,not soluble
9,MRGVVFLHAFPYSPRMWEGEVALLKTRLPVLAPHYLGLSLGKAAEKVLGEMDEAGLEQAVFVGLSMGGYLVFELFRKAPERFLGTVLSSTRAGPDSEEAKRNRYALRERVLKDGVGFLPEALLPSHLGRTTQATKPEVVEKVRAIILEASPEAVAETLVALAERPDSTPLLSRMQVPALVLVGEEDTLTPPEEARRMWKALPDARMLILPETGHLANLENPKAFRTALLGFLAEFF,soluble
10,MSLGGLCPRCRGRGWCGRDRCPFLDALNEVRARLSSRNVDGYTVTAHVSWRGYPRVIAAPGVGEHRTPDEGGVLADLPYEEALKTRALTFRRYRGKRDVRNPPDLSDPEIESSISVRPVESTLQVRRRLSGASRTTPFIGPLVEGELELDGTPKVPRDLERYHEDDVKAEEAVVGLYRRGYDESYIARALSLGLLGRDRRMVPTRWSVAAVDSMVSEHLAREVRDLPVSSEYRVLSGEVFGNEMWVILRPEPLSYELVEAYEPGAPWSDRTRIAVLRDSEVKDCKEPRETGGAYFAARLAALEWCSELGKQHGITVIRIVRKEYSAPLGAWVIREAVRRAEEVFSTDDPREVWEFLREKLDDPVGEAALKVIKRGRQRTLDTFLEGHHHHHH,not soluble
11,MSLTIKEIADKVNLSPTTVSNVIHGRKGKVSPDNYKKISRALEESKYVSNMGGRLLGRHGSKIIAVILNYERRSEMNVVSDPFYNQIVGFLEEEIRKKSYFMMLYTSGSVTESLRLATAWDIEGLIVLGSHPDDAKNFIKQQKRPVAFIDTYVDKESMTDDFINVGLQDFKGGYQITNYLIGLGHRRIGFFADGNQLLGVDQQRFAGFKKALSEADINLENPGFFGLDYRTNQRHIFLKKFSETKLKDYTALVFTSDFLAVDAINVFLDNGFKVPEDISITGFDHNIFSEQCRPKLTTIGQNVQKKAVLAVDFLTERIQSKQAIKKINLLLDAELIVQDSTAREGHHHHHH,soluble
12,MSNIYDSANELSRGLRGLPEYKAVKAAKDAIAADAEASKIFTDYLAFQEEIQKLAQTGQMPDASFQAKMEGFGKQIQGNSLLSEFFTKQQQLAIYLSDIEKIVFEPVSELLK,soluble
13,GSMEQFELFSIDKFKCNSEAKYYLNIIEGEWHPQDLNDSPLKFILSTSDDSDYICKYINTEHKQLTLYNKNNSSIVIEIFIPNDNKILLTIMNTEALGTSPRMTFIKHK,soluble
14,MDLDADFLLLHLSDSALPTGAFAHSFGFETYMDAERITNAEEFQDWLKVLLKVQLTSSDALAMRMFYATPTVSELKRLDERLFAGTPAREIREANARMGTRMAEIVAETYSVPLIVEYLELIQHRELSGHPALALALATHSAGIDVDRAIHAHLTATVSSLIQNAVRGIPLGQMAGQRVMFAMREHIGAAVKRSANLDEIDFCSGDPGLDISQMVHETQRARLFMSLEHHHHHH,not soluble
15,MGKTSRDKRDIYYRLAKENKWRARSAFKLMQIDDEFQILKGVRRAVDLCAAPGSWSQVLSKRLYEEDQEAKIVAIDLQPMAPIPGVIQLQGDITSVDTANQVIKHFSGEKSDIVICDGAPDVTGIHSLDEFMQAELILAAFNITSHVLKEGGNFLAKIFRSRNSSLLYAQMKKYFKKVYLAKPRSSRQSSCEAFVLCLDYSPPEGFVPTMGKTSLDATDASAISPDIIDGFVTCGDLSGWDSEKSYPLDIDACFPKGEIDEEQKKRYEFKDVVQPPTDPAYKAALDKKKSGVFAKMSADLNRQLKAELSRGKDQKKTPAENVPSVEELEKAAEKFQL,not soluble
16,KSEKRMKLTLKGGAAVDPDSGLEHSAHVLEKGGKVFSATLGLVDIVKGTNSYYKLQLLEDDKENRYWIFRSWGRVGTVIGSNKLEQMPSKEDAIEHFMKLYEEKTGNAWHSKNFTKYPKKFYPLEI,soluble
17,MSISIMTETRPESAEQQHHEVLQRPSDEPCSGCKQLQKDVAKTISMVMERMDKLQYRLDELLKENNELKSSSVSSGKASPSPAESRSSPKLVETVVAPVSGARKRKPKERSPPAAASPLPDFSNLMNGFMFDPLNMSNPNGMMQLLSMVQQQQQQQQHHQHIENQQSVSPPQSKSVKIEDPMDQDVKQEESERSDIPTATEAQNLLDALTAQFSSNGQATSTTSPPSSSSQVQAVIEAVATPSSQSQDSSMFEKTETSGDPNAARCSNCRTDKTTAWRRDAEGKLVCNPCGLYYRLHKVRRPIEMRKNHIQQRYRRKNKEKESSAATQIFNQLLTQMPTMATGGVSTDGAINTFNLLEQISQFTQAQELMNSSATF,not soluble
18,ATLKDITRRLKSIKNIQKITKSMKMVAAAKYARAERELKPARVYGVGSLALYEKADIKTPEDKKKHLIIGVSSDRGLCGAIHSSVAKQMKSEAANLAAAGKEVKIIGVGDKIRSILHRTHSDQFLVTFKEVGRRPPTFGDASVIALELLNSGYEFDEGSIIFNRFRSVISYKTEEKPIFSLDTISSAESMSIYDDIDADVLRNYQEYSLANIIYYSLKESTTSEQSARMTAMDNASKNASEMIDKLTLTFNRTRQAVITKELIEIISGAAAL,soluble
19,DYKDDDDKLAAAQYPVVNTNYGKIRGLRTPLPNEILGPVEQYLGVPYASPPTGERRFQPPEPPSSWTGIRNTTQFAAVCPQHLDERSLLHDMLPIWFTANLDTLMTYVQDQNEDCLYLNIYVPTEDDIHDQNSKKPVMVYIHGGSYMEGTGNMIDGSILASYGNVIVITINYRLGILGFLSTGDQAAKGNYGLLDQIQALRWIEENVGAFGGDPKRVTIFGSGAGASCVSLLTLSHYSEGLFQKAIIQSGTALSSWAVNYQPAKYTRILADKVGCNMLDTTDMVECLRNKNYKELIQQTITPATYHIAFGPVIDGDVIPDDPQILMEQGEFLNYDIMLGVNQGEGLKFVDGIVDNEDGVTPNDFDFSVSNFVDNLYGYPEGKDTLRETIKFMYTDWADKENPETRRKTLVALFTDHQWVAPAVATADLHAQYGSPTYFYAFYHHCQSEMKPSWADSAHGDEVPYVFGIPMIGPTELFSCNFSKNDVMLSAVVMTYWTNFAKTGDPNQPVPQDTKFIHTKPNRFEEVAWSRYNPKDQLYLHIGLKPRVRDHYRATKVAFWLELVPHLHNLNEIFQYVSTTTKVPPPDMT,soluble
20,MSLSLKELLKDRLSEEELKLVRRSFEIIGDVVIIEIPDEIMHHSRDIVEAILKRHKHVKTVLRKVGEVDGVYRVARYEPIYGEKTETVVREHGCRFLVDPTKAYYSVKLSGERERIARLVGEGERVLVMFAGVGPYPIVIAKLARPREVVGVELNPHAVEYFRQNVRLNKVEGVVKVIEGDVEEVVPQLSGQFDRVVMPAPYSAENFIHLLRGKVRRGGFVHYYTFDSQNEEKILPEKVRRKFEDEGLEVEVVKMRRCGNFAPYVNRYVLDLRVLEGHHHHHH,soluble
21,ATALAGSNGVCIAYYITDGRNPTFKLKDIPDKVDMVILFGLKYWSLQDTTKLPGGTGMMGSFKSYKDLDTQIRSLQSRGIKVLQNIDDDVSWQSSKPGGFASAAAYGDAIKSIVIDKWKLDGISLDIEHSGAKPNPIPTFPGYAATGYNGWYSGSMAATPAFLNVISELTKYFGTTAPNNKQLQIASGIDVYAWNKIMENFRNNFNYIQLQSYGANVSRTQLMMNYATGTNKIPASKMVFGAYAEGGTNQANDVEVAKWTPTQGAKGGMMIYTYNSNVSYANAVRDAVKN,soluble
